Experiment [1] has as its target Hepatocyte Growth Factor Activator (HGFA) serine protease domain, N-terminal His-tag, recombinant (Homo sapiens (Human)) (UniProt Q04756).
Experiment [2] shares this target. Briefly: fluorogenic inhibition assay.
Experiment [3] concerns the target T1, matriptase (Charles Craik, UCSF), recombinant (Homo sapiens (Human), UniProt Q9Y5Y6).
T1 sequence: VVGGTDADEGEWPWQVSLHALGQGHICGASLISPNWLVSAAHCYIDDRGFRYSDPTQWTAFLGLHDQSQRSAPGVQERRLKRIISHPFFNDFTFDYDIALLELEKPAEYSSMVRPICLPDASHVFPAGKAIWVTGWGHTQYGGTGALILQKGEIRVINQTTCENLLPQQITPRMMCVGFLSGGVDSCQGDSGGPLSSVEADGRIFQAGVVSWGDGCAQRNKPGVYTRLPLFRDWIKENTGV
Put plainly: fluorogenic inhibition assay. On the procedure: (§1) Inhibitors (11-pt serial dilutions, 0-20 μM final concentration in reaction) were serially diluted in DMSO (2% DMSO final concentration) and then mixed with either recombinant serine protease domain of HGFA [Z. Han, P. K. Harris, D. E. Jones, R. Chugani, T. Kim, M. Agarwal, W. Shen, S. A. Wildman, J. W. Janetka, Acs Med Chem Lett 2014, 5, 1219-1224], matriptase (Charles Craik, UCSF) or hepsin* (#4776-SE-010, R&D Systems, Minneapolis, Minn.) in black 384 well plates (Corning #3575. Corning, N.Y.). […] The final substrate concentrations for all assays were at the Kₘ for the respective enzymes. Changes in fluorescence (excitation at 380 nm and emission at 460 nm) were measured at room temperature over time in a Biotek Synergy 2 plate reader (Winnoski, Vt.). Using GraphPad Prism version 6.04 software program, (GraphPad Software, San Diego, Calif., www.graphpad.com), a four parameter curve fit was used to determine the inhibitor IC₅₀s from a plot of the mean reaction velocity versus the inhibitor concentration. The IC₅₀ values represent the average of three separate experimental determinations.
(§2) Fluorescent inhibitor and chromogenic proteolytic assays were performed in general accordance with the procedures described in Example 4 for compounds prepared in Examples 5 and 6.

The target in experiment [4] is Recombinant human hepsin (4776-SE-010, R&D Systems), activated (human, UniProt P05981). Briefly: fluorogenic inhibition assay. On the procedure:
as §1, §2

Usually Ki stands for the dissociation constant of the complex between target and ligand, obtained from inhibition or displacement.

Non-standard residues stand in square brackets, D forms with d. *: point of attachment. kbt = C-terminal ketobenzothiazole, c1ccc2sc(*)nc2c1; His(π-Bom) = N[C@@H](Cc1cncn1COCc1ccccc1)C(=O)O; Fmoc = O=C(OCC1c2ccccc2-c2ccccc21)*; cmk = not defined here

In the case of Ac-SHLdR-kt (peptide), the IC50 of enzyme inhibition in experiment [1] was determined as 21200 nM.

For Ac-SdRLdR-kt (peptide), the IC50 of enzyme inhibition in experiment [1] turned out to be 11900 nM.

For the molecule H-KQLR(SEQ ID NO: 1)-Kt (peptide), the IC50 of enzyme inhibition in experiment [1] amounted to 440 nM.

Turning to Ac-SKLdR-kt (peptide), in experiment [1], the IC50 of enzyme inhibition is 6310 nM.

As for Ac-KQFdR-kt (peptide), the IC50 of enzyme inhibition in experiment [1] amounted to 7820 nM.

Ac-KHLdR-kt (peptide): the IC50 of enzyme inhibition in experiment [1] stood at 10900 nM.

As for Ac-SdRLR-kt (peptide), in experiment [1], the IC50 of enzyme inhibition was found to be 1420 nM.

With Ac-RQLdR-kt (peptide), the IC50 of enzyme inhibition in experiment [1] is 3120 nM.

Ac-WQLdR-kt (peptide): in experiment [1], the IC50 of enzyme inhibition worked out at 7120 nM.

As to Ac-KQLdR-kt (peptide), the IC50 of enzyme inhibition in experiment [1] was 5530 nM.

Take Ac-SRLdR-kt (peptide): the IC50 of enzyme inhibition in experiment [1] worked out at 2240 nM.

Ac-WKLdR-kt (peptide): the IC50 of enzyme inhibition in experiment [1] came out at 6500 nM.

As to Ac-SKFdR-kt (peptide), the IC50 of enzyme inhibition in experiment [1] came to 10800 nM.

B1: Fmoc-YR-kbt (peptide)
peptide: Fmoc-Tyr-Arg-kbt
Consider B1, for which the results for the Ki in experiment [2], in experiment [3] and in experiment [4] were 2960 nM, 332 nM and 217 nM, respectively.

B2: Fmoc-DR-kbt (peptide)
peptide: Fmoc-Asp-Arg-kbt
For B2, the Ki is above 20000 nM in experiment [2], 398 nM in experiment [3] and 233 nM in experiment [4].

B3: Fmoc-RR-kbt (peptide)
peptide: Fmoc-Arg-Arg-kbt
Take B3: the Ki was found to be 8630 nM in experiment [2], 2 nM in experiment [3] and 99.9 nM in experiment [4].

B4: H-WFR-kbt (peptide)
peptide: H-Trp-Phe-Arg-kbt
Turning to B4, the Ki was 5680 nM in experiment [2] and 240 nM in experiment [4].

B5: H-dWFR-kbt-COOH (peptide)
peptide: H-[dW]-Phe-Arg-{kbt-OH}
For B5, the Ki was found to be 981 nM in experiment [2], 232 nM in experiment [3] and 1.41 nM in experiment [4].

B6: Fmoc-PR-kbt (peptide)
peptide: Fmoc-Pro-Arg-kbt
With B6, the Ki was above 20000 nM in experiment [2], 40.4 nM in experiment [3] and 776 nM in experiment [4].

B7: Cy5.5-KRLR(SEQ ID NO: 8)-kbt (peptide)
peptide: {Cy5.5}-KRLR-kbt
Take B7: the inhibition constant Ki in experiment [2] amounted to 608 nM; in experiment [3], 87.5 nM; in experiment [4] it was 3.89 nM.

B8: H-WLR-kbt-COOH (peptide)
peptide: H-Trp-Leu-Arg-{kbt-OH}
For the molecule B8, the values for the Ki in experiment [2] and in experiment [4] were 1380 nM and 446 nM, respectively.

B9: Fmoc-NR-kbt (peptide)
peptide: Fmoc-Asn-Arg-kbt
As to B9, the figures for the Ki in experiment [2], in experiment [3] and in experiment [4] were above 20000 nM, 84.1 nM and 1.92 nM, respectively.

B10: Fmoc-IR-kbt (peptide)
peptide: Fmoc-Ile-Arg-kbt
B10: the Ki turned out to be 6470 nM in experiment [2], 657 nM in experiment [3] and 297 nM in experiment [4].

B11: Fmoc-VR-kbt (peptide)
peptide: Fmoc-Val-Arg-kbt
On to B11, for which the Ki in experiment [2] was found to be 4630 nM; in experiment [3], 1490 nM; in experiment [4], 314 nM.

B12: Fmoc-GR-kbt (peptide)
peptide: Fmoc-Gly-Arg-kbt
Regarding B12, the Ki in experiment [2] is 9380 nM; in experiment [3], 0.1 nM; in experiment [4], 831 nM.

B13: Fmoc-ER-kbt (peptide)
peptide: Fmoc-Glu-Arg-kbt
With B13, the values for the Ki in experiment [2], in experiment [3] and in experiment [4] were above 20000 nM, 8.4 nM and 338 nM, respectively.

B14: Cy5.5-KRLR(SEQ ID NO: 8)-cmk (peptide)
peptide: {Cy5.5}-KRLR-cmk
modifications: reading uncertain
For B14, the Ki in experiment [2] was 34.1 nM; in experiment [3], 172 nM; in experiment [4], 324 nM.

B15: H-His(Bom)-dWLR-kbt (peptide)
peptide: H-[His(π-Bom)][dW]LR-kbt
SMILES: CC(C)C[C@H](NC(=O)[C@@H](Cc1c[nH]c2ccccc12)NC(=O)[C@@H](N)Cc1cncn1COCc1ccccc1)C(=O)N[C@@H](CCCNC(=N)N)C(=O)c1nc2ccccc2s1
On to B15, for which the figures for the Ki in experiment [2], in experiment [3] and in experiment [4] were 2280 nM, 1500 nM and 1.13 nM, respectively.

B16: H-dWLR-kbt (peptide)
peptide: H-[dW]-Leu-Arg-kbt
Turning to B16, the figures for the inhibition constant (Ki) in experiment [2] and in experiment [4] were 128 nM and 3.58 nM, respectively.

B17: Fmoc-HR-kbt (peptide)
peptide: Fmoc-His-Arg-kbt
In the case of B17, the Ki in experiment [2] amounted to 6360 nM; in experiment [3], 66.7 nM; in experiment [4], 268 nM.

B18: H-His(Bom)-WLR-kbt (peptide)
peptide: H-[His(π-Bom)]WLR-kbt
SMILES: CC(C)C[C@H](NC(=O)[C@H](Cc1c[nH]c2ccccc12)NC(=O)[C@@H](N)Cc1cncn1COCc1ccccc1)C(=O)N[C@@H](CCCNC(=N)N)C(=O)c1nc2ccccc2s1
For the molecule B18, the Ki in experiment [2] turned out to be 3710 nM; in experiment [3] it was 1550 nM; in experiment [4] it was 2.08 nM.

B19: Fmoc-MR-kbt (peptide)
peptide: Fmoc-Met-Arg-kbt
B19: the inhibition constant (Ki) in experiment [3] turned out to be 62.1 nM; in experiment [4], 490 nM.

B20: H-dWFR-kbt (peptide)
peptide: H-[dW]-Phe-Arg-kbt
On to B20, for which the inhibition constant (Ki) in experiment [2] came out at 2250 nM; in experiment [4], 370 nM.

B21: Fmoc-QR-kbt (peptide)
peptide: Fmoc-Gln-Arg-kbt
Consider B21, for which the Ki in experiment [2] turned out to be 6830 nM; in experiment [3] it was 1.6 nM; in experiment [4] it was 170 nM.

B22: Fmoc-KR-kbt (peptide)
peptide: Fmoc-Lys-Arg-kbt
As to B22, the Ki was above 20000 nM in experiment [2], 0.2 nM in experiment [3] and 159 nM in experiment [4].

B23: H-dWLR-kbt-COOH (peptide)
peptide: H-[dW]-Leu-Arg-{kbt-OH}
Consider B23, for which the Ki in experiment [2] was found to be 346 nM; in experiment [4], 136 nM.

B24: Fmoc-TR-kbt (peptide)
peptide: Fmoc-Thr-Arg-kbt
Take B24: the Ki was above 20000 nM in experiment [2], 1220 nM in experiment [3] and 437 nM in experiment [4].

B25: Fmoc-WR-kbt (peptide)
peptide: Fmoc-Trp-Arg-kbt
For the molecule B25, the results for the Ki in experiment [2], in experiment [3] and in experiment [4] were 3200 nM, 824 nM and 411 nM, respectively.

B26: Fmoc-AR-kbt (peptide)
peptide: Fmoc-Ala-Arg-kbt
With B26, the figures for the Ki in experiment [2], in experiment [3] and in experiment [4] were 7980 nM, 0.5 nM and 272 nM, respectively.

B27: Fmoc-SR-kbt (peptide)
peptide: Fmoc-Ser-Arg-kbt
Take B27: the figures for the inhibition constant Ki in experiment [2], in experiment [3] and in experiment [4] were above 20000 nM, 90 nM and 886 nM, respectively.

These data come from US20180066015A1, “INHIBITORS OF GROWTH FACTOR ACTIVATION ENZYMES” (Washington University, published 2018).
